Data: PMC8864007 (2022)

T1: murine HER2 (murine, UniProt P70424 23-1256)
T1 chain: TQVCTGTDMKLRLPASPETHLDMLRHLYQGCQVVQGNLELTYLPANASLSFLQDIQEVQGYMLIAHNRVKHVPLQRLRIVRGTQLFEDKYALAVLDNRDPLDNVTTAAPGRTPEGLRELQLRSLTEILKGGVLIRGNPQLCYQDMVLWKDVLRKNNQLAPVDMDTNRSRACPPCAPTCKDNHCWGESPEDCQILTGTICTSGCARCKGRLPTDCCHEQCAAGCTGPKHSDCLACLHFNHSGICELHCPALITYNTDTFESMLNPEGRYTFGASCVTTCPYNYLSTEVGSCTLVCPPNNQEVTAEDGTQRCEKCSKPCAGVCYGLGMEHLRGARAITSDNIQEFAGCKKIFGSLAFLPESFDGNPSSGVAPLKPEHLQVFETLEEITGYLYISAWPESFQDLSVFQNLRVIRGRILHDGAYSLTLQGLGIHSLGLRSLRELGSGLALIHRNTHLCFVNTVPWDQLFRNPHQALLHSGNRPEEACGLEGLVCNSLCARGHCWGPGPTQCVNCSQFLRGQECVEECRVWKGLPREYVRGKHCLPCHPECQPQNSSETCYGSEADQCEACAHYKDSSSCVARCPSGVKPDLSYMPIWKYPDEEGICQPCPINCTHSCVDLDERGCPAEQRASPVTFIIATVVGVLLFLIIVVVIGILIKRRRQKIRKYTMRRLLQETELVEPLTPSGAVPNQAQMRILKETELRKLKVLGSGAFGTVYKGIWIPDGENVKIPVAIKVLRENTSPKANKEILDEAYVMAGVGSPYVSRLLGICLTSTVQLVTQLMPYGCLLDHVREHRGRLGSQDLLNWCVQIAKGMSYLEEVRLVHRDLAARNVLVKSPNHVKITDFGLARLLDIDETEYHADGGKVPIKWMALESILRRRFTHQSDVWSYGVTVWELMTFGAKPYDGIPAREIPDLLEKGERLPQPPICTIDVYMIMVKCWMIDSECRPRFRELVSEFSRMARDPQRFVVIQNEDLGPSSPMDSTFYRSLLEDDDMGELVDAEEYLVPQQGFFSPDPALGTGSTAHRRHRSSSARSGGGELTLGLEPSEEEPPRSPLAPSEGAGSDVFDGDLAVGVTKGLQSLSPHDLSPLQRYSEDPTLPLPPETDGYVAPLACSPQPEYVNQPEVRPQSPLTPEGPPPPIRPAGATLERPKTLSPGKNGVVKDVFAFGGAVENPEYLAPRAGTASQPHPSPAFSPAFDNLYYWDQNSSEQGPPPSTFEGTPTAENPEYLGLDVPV

B1: VHH_1028 (VHH)
VHH: EVQLVESGGGLVQAGGSLRLSCAASGITFSINTMGWYRQAPGKQRELVALISSIGDTYYADSVRGRFTISRDNAKNTVYLQMNSLKPEDTAVYYCKRFRTAAQGTDYWGQGTQVTVSS
B2: iso-SGMIB-VHH_1028 (VHH)
VHH: B1 VHH
modifications: one iso-SGMIB (non-radioactive) conjugated, mono-substituted; site not stated

Experiments:
murine HER2 = biological target: T1, murine HER2; assay: ELISA
HER2-Fc protein [1] = biological target: T2, HER2-Fc protein (human, UniProt P04626 23-652); assay: ELISA
Rhesus HER2-Fc = assay: ELISA
Cynomolgus HER2-Fc = assay: ELISA
Human EGFR-Fc = assay: ELISA
Human HER2-His6 = assay: ELISA
Human HER3-Fc = assay: ELISA
Human HER4-Fc = assay: ELISA
Human IgG Fc = assay: ELISA
Rat HER2-Fc = assay: ELISA
Canine HER2-Fc = assay: ELISA
HER2-Fc protein [2] = biological target: T2, HER2-Fc protein; assay: SPR

| Binder | EC50 (murine HER2) [nM] | EC50 (HER2-Fc protein [1]) [nM] | EC50 (Rhesus HER2-Fc) [nM] | EC50 (Cynomolgus HER2-Fc) [nM] | EC50 (Human EGFR-Fc) [nM] | EC50 (Human HER2-His6) [nM] | EC50 (Human HER3-Fc) [nM] | EC50 (Human HER4-Fc) [nM] | EC50 (Human IgG Fc) [nM] | EC50 (Rat HER2-Fc) [nM] | EC50 (Canine HER2-Fc) [nM] | koff (HER2-Fc protein [2]) [s⁻¹] |
| --- | --- | --- | --- | --- | --- | --- | --- | --- | --- | --- | --- | --- |
| B1 | > 10000 | 0.77 | 1.18 | 1.19 | > 10000 | 0.69 | > 10000 | > 10000 | > 10000 | > 10000 | 1.09 | 0.000718 |
| B2 | – | – | – | – | – | – | – | – | – | – | – | 0.00071 |
